Results: patent publication US20210079074A1
Where a chain is given by its changes, count along the chain named.

B1: anti-MS4A4A antibody 4A-357 (antibody, V domains shown)
VH: QVQLVQSGSELKKPGASVKVSCKASGYIFTSYGLSWVRQAPGQGLEWMGWINTYSGVPTYAQGFTGRFVFSLDTSVSTAYLQISSLKAEDTAVYYCARTLADYWGQGTLVTVSS
VL: DVVMTQSPLSLPVTLGQPASISCKSSQSLLYSDGKTYLSWFQQRPGQSPRRLIYEVSKLDSGVPDRFSGSGSGTDFTLKISRVEAEDVGVYYCWQGIDFHQTFGGGTKVEIK
B2: anti-MS4A4A antibody 4A-366 (antibody, V domains shown)
VH: B1 VH with I28T, V37I, L100M, A101V
VL: B1 VL with Q27R, E55L
B3: anti-MS4A4A antibody 4A-375 (antibody, V domains shown)
VH: B1 VH with T99S
VL: B1 VL with Q27R, E55L
B4: anti-MS4A4A antibody 4A-365 (antibody, V domains shown)
VH: B1 VH with I28T, V37I, L100M, A101V
VL: B1 VL with E55L, D60S
B5: anti-MS4A4A antibody 4A-370 (antibody, V domains shown)
VH: B1 VH with A101G
VL: B1 VL with S26G, E55L, K58R
B6: anti-MS4A4A antibody 4A-363 (antibody, V domains shown)
VH: B1 VH
VL: B1 VL with E55L, D60S
B7: anti-MS4A4A antibody 4A-372 (antibody, V domains shown)
VH: B1 VH with A101G
VL: B1 VL with E55L, K58R
B8: anti-MS4A4A antibody 4A-368 (antibody, V domains shown)
VH: B1 VH with I28T, V37I, L100M, A101V
VL: B1 VL with E55L, D60E
B9: anti-MS4A4A antibody 4A-371 (antibody, V domains shown)
VH: B1 VH with A101G
VL: B1 VL with E55L
B10: anti-MS4A4A antibody 4A-361 (antibody, V domains shown)
VH: B1 VH
VL: B1 VL with E55L, D60E
B11: anti-MS4A4A antibody 4A-364 (antibody, V domains shown)
VH: B1 VH with I28T, V37I, L100M, A101V
VL: B1 VL with S25A, E55L, T74A
B12: anti-MS4A4A antibody 4A-367 (antibody, V domains shown)
VH: B1 VH with I28T, V37I, L100M, A101V
VL: B1 VL with E55L
B13: anti-MS4A4A antibody 4A-359 (antibody, V domains shown)
VH: B1 VH
VL: B1 VL with S25A, E55L, T74A
B14: anti-MS4A4A antibody 4A-374 (antibody, V domains shown)
VH: B1 VH with T65A, A101V
VL: B1 VL with Q27R, E55L
B15: anti-MS4A4A antibody 4A-21 (antibody, V domains shown)
VH: QIQLVQSGPELKKPGETVKISCKASGYIFTSYGLSWVKQTPGKGLKWMGWINTYSGVPTYANDFKGRFAFSLETSASTTYLRINNLKNDDTATYFCARSLVDYWGQGTPLTVSS
VL: not shown

target: recombinant MS4A4A soluble polypeptide JS5; test: ELISA, 0.4 ug/ml antibody; conditions: not given

| OD450 | Binder |
| --- | --- |
| 0.892 | B1 |
| 0.875 | B2 |
| 0.996 | B3 |
| 0.845 | B4 |
| 0.822 | B5 |
| 0.833 | B6 |
| 0.873 | B7 |
| 0.901 | B8 |
| 0.955 | B9 |
| 0.79 | B10 |
| 0.959 | B11 |
| 0.961 | B12 |
| 0.892 | B13 |
| 0.833 | B14 |

target: human MS4A4A (human), Q96JQ5; test: FACS, U937-huMS4A4A, 5 ug/ml; conditions: remark: other sources report otherwise

| MFI | Binder |
| --- | --- |
| 670 | B15 |

target: human MS4A4A (human), Q96JQ5; test: FACS, U937-huMS4A4A, 5 ug/ml; conditions: remark: other sources report otherwise; remark: another data set of the same source

| MFI | Binder |
| --- | --- |
| 18800 | B15 |
